{"source": "the RNAGym collection of RNA variant scans (doi:10.7554/elife.80360)", "parents": {"B1": {"name": "CPEB3 Ribozyme (parent)", "chain": "GGGGGCCACAGCAGAAGCGUUCACGUCGCGGCCCCUGUCAGAUUCUGGUGAAUCUGCGAAUUCUGCUGU"}}, "data": [{"variants_of": "B1", "test": "self-cleavage, relative activity (ratio to wild type); higher = more cleavage; co-transcriptional", "values": [{"variant": "GGGGGCCACAGCUGAAGCGUUCACGUCGCGGCCCCUGUCAGAUUCUGGUGGAUCUGCGAAUUCUGCUGU", "note": "[A13U A51G]", "self-cleavage": 0.837}, {"variant": "GGGGGCCACAGCUGAAGCGUUCACGUCGCGGCCCCUGUCAGAUUCUGGUGCAUCUGCGAAUUCUGCUGU", "note": "[A13U A51C]", "self-cleavage": 0.828}, {"variant": "GGGGGCCACAGCUGAAGCGUUCACGUCGCGGCCCCUGUCAGAUUCUGGUGUAUCUGCGAAUUCUGCUGU", "note": "[A13U A51U]", "self-cleavage": 0.858}, {"variant": "GGGGGCCACAGCUGAAGCGUUCACGUCGCGGCCCCUGUCAGUUUCUGGUGAAUCUGCGAAUUCUGCUGU", "note": "[A13U A42U]", "self-cleavage": 0.494}, {"variant": "GGGGGCCACAGCUGAAGCGUUCACGUCGCGGCCCCUGUCAGGUUCUGGUGAAUCUGCGAAUUCUGCUGU", "note": "[A13U A42G]", "self-cleavage": 0.645}, {"variant": "GGGGGCCACAGCGGAAGCGUUCACGUCGCGGCCCCUGUCAGAUUCUGGUGAAUCUGCGAAGUCUGCUGU", "note": "[A13G U61G]", "self-cleavage": 0.53}, {"variant": "GGGGGCCACAGCGGAAGCGUUCACGUCGCGGCCCCUGUCAGAUUCUGGUGAAUCUGCGAAUUCUGCCGU", "note": "[A13G U67C]", "self-cleavage": 0.94}, {"variant": "GGGGGCCACAGCGGAAGCGUUCACGUCGCGGCCCCUGUCAGAUUCUGGUGAAUCUGCGAAUUCUGCAGU", "note": "[A13G U67A]", "self-cleavage": 0.889}, {"variant": "GGGGGCCACAGCUGAAGCGUUCACGUCGAGGCCCCUGUCAGAUUCUGGUGAAUCUGCGAAUUCUGCUGU", "note": "[A13U C29A]", "self-cleavage": 0.178}, {"variant": "GGGGGCCACAGCUGAAGCGUUCACGUCGGGGCCCCUGUCAGAUUCUGGUGAAUCUGCGAAUUCUGCUGU", "note": "[A13U C29G]", "self-cleavage": 0.0771}, {"variant": "GGGGGCCACAGCUGAAGCGUUCACGUCGCGGCCCCUGUCAGAUUCUGGUGAAUCUGCGAGUUCUGCUGU", "note": "[A13U A60G]", "self-cleavage": 0.398}, {"variant": "GGGGGCCACAGCUGAAGCGUUCACGUCGCGGCCCCUGUCAGAUUCUGGUGAAUCUGCGAUUUCUGCUGU", "note": "[A13U A60U]", "self-cleavage": 0.356}, {"variant": "GGGGGCCACAGCGGAAGCGUUCACGUCGCGGCCCCUGUCAGAUUCUGGUGAAUCUGCGAAUUCUGCUGC", "note": "[A13G U69C]", "self-cleavage": 1.04}, {"variant": "GGGGGCCACAGCGGAAGCGUUCACGUCGCGGCCCCUGUCAGAUUCUGGUGAAUCUGCGAAUUCUGCUGG", "note": "[A13G U69G]", "self-cleavage": 1.01}, {"variant": "GGGGGCCACAGCUGAAGCGUUCGCGUCGCGGCCCCUGUCAGAUUCUGGUGAAUCUGCGAAUUCUGCUGU", "note": "[A13U A23G]", "self-cleavage": 0.618}, {"variant": "GGGGGCCACAGCUGAAGCGUUCUCGUCGCGGCCCCUGUCAGAUUCUGGUGAAUCUGCGAAUUCUGCUGU", "note": "[A13U A23U]", "self-cleavage": 0.963}, {"variant": "GGGGGCCACAGCGGAAGCGUUCACGUCGCGGCCCCUGUCAGAUUCUGGUGAAUCUGCGAAUUCAGCUGU", "note": "[A13G U64A]", "self-cleavage": 0.843}, {"variant": "GGGGGCCACAGCGGAAGCGUUCACGUCGCGGCCCCUGUCAGAUUCUGGUGAAUCUGCGAAUUCCGCUGU", "note": "[A13G U64C]", "self-cleavage": 1}, {"variant": "GGGGGCCACAGCGGAAGCGUUCACGUCGCGGCCCCUGUCAGAUUCUGGUGAAUCUGCGAAUUCGGCUGU", "note": "[A13G U64G]", "self-cleavage": 0.745}, {"variant": "GGGGGCCACAGCGGAAGCGUUCACGUCGCGGCCCCUGUCAGAUUCUGGUGAAUCUGCGAAUACUGCUGU", "note": "[A13G U62A]", "self-cleavage": 0.622}, {"variant": "GGGGGCCACAGCGGAAGCGUUCACGUCGCGGCCCCUGUCAGAUUCUGGUGAAUCUGCGAAUCCUGCUGU", "note": "[A13G U62C]", "self-cleavage": 0.449}, {"variant": "GGGGGCCACAGCGGAAGCGUUCACGUCGCGGCCCCUGUCAGAUUCUGGUGAAUCUGCGAAUGCUGCUGU", "note": "[A13G U62G]", "self-cleavage": 0.445}, {"variant": "GGGGGCCACAGCUGAAGCGUUCACGUCGCGGCCCCUGUCAGAUUCUGGUGAAUCUGCGGAUUCUGCUGU", "note": "[A13U A59G]", "self-cleavage": 0.784}, {"variant": "GGGGGCCACAGCUGAAGCGUUCACGUCGCGGCCCCUGUCAGAUUCUGGUGAAUCUGCGCAUUCUGCUGU", "note": "[A13U A59C]", "self-cleavage": 0.33}, {"variant": "GGGGGCCACAGCUGAAGCGUUCACGUAGCGGCCCCUGUCAGAUUCUGGUGAAUCUGCGAAUUCUGCUGU", "note": "[A13U C27A]", "self-cleavage": 0.207}, {"variant": "GGGGGCCACAGCUGAAGCGUUCAAGUCGCGGCCCCUGUCAGAUUCUGGUGAAUCUGCGAAUUCUGCUGU", "note": "[A13U C24A]", "self-cleavage": 0.301}, {"variant": "GGGGGCCACAGCUGAAGCGUUCAUGUCGCGGCCCCUGUCAGAUUCUGGUGAAUCUGCGAAUUCUGCUGU", "note": "[A13U C24U]", "self-cleavage": 0.364}, {"variant": "GGGGGCCACAGCUGAAGCGUUCACGUCGCGGCCCCUGUCGGAUUCUGGUGAAUCUGCGAAUUCUGCUGU", "note": "[A13U A40G]", "self-cleavage": 0.607}, {"variant": "GGGGGCCACAGCUGGAGCGUUCACGUCGCGGCCCCUGUCAGAUUCUGGUGAAUCUGCGAAUUCUGCUGU", "note": "[A13U A15G]", "self-cleavage": 0.79}, {"variant": "GGGGGCCACAGCUGCAGCGUUCACGUCGCGGCCCCUGUCAGAUUCUGGUGAAUCUGCGAAUUCUGCUGU", "note": "[A13U A15C]", "self-cleavage": 0.354}, {"variant": "GGGGGCCACAGCUGUAGCGUUCACGUCGCGGCCCCUGUCAGAUUCUGGUGAAUCUGCGAAUUCUGCUGU", "note": "[A13U A15U]", "self-cleavage": 0.56}, {"variant": "GGGGGCCACAGCUGAAGGGUUCACGUCGCGGCCCCUGUCAGAUUCUGGUGAAUCUGCGAAUUCUGCUGU", "note": "[A13U C18G]", "self-cleavage": 0.119}, {"variant": "GGGGGCCACAGCUGAAGUGUUCACGUCGCGGCCCCUGUCAGAUUCUGGUGAAUCUGCGAAUUCUGCUGU", "note": "[A13U C18U]", "self-cleavage": 0.19}, {"variant": "GGGGGCCACAGCUGAUGCGUUCACGUCGCGGCCCCUGUCAGAUUCUGGUGAAUCUGCGAAUUCUGCUGU", "note": "[A13U A16U]", "self-cleavage": 0.34}, {"variant": "GGGGGCCACAGCUGACGCGUUCACGUCGCGGCCCCUGUCAGAUUCUGGUGAAUCUGCGAAUUCUGCUGU", "note": "[A13U A16C]", "self-cleavage": 0.14}, {"variant": "GGGGGCCACAGCUGAGGCGUUCACGUCGCGGCCCCUGUCAGAUUCUGGUGAAUCUGCGAAUUCUGCUGU", "note": "[A13U A16G]", "self-cleavage": 0.589}, {"variant": "GGGGGCCACAGCUGAAGCGUUCACGUCGCGGCCCCUGUCAGAUUCUGGUGAGUCUGCGAAUUCUGCUGU", "note": "[A13U A52G]", "self-cleavage": 0.902}, {"variant": "GGGGGCCACAGCUGAAGCGUUCACGUCGCGGCCCCUGUCAGAUUCUGGUGAUUCUGCGAAUUCUGCUGU", "note": "[A13U A52U]", "self-cleavage": 0.776}, {"variant": "GGGGGCCACAGCUGAAGCGUUCACGUCGCGGCCCCUGUCAGAUUCUGGUGACUCUGCGAAUUCUGCUGU", "note": "[A13U A52C]", "self-cleavage": 0.8}]}]}
